# Assay results reported in article PMC9692295.
# What was measured:
# [1] = target: Gaboon viper virus 1 (GaVV-1) phosphoprotein oligomerisation domain (POD), residues 67 to 178 (Gaboon viper virus 1 (GaVV-1)); assay: crystal structure
# [2] = target: Gaboon viper virus 1 (GaVV-1) phosphoprotein oligomerisation domain (POD), residues 67 to 178 (Gaboon viper virus 1 (GaVV-1)); assay: SEC-SAXS
# [3] = target: Munia bornavirus 1 (MuBV-1) phosphoprotein oligomerisation domain (POD), residues 65 to 172 (munia bornavirus 1 (MuBV-1)); assay: crystal structure
# [4] = target: Munia bornavirus 1 (MuBV-1) phosphoprotein oligomerisation domain (POD), residues 65 to 172 (munia bornavirus 1 (MuBV-1)); assay: SEC-SAXS
Substance,stoichiometry N [1],stoichiometry N [2],stoichiometry N [3],stoichiometry N [4]
"Gaboon viper virus 1 (GaVV-1) phosphoprotein oligomerisation domain (POD), residues 67 to 178 (domain or fragment)",4,4,–,–
"Munia bornavirus 1 (MuBV-1) phosphoprotein oligomerisation domain (POD), residues 65 to 172 (domain or fragment)",–,–,4,4
